What was measured:
[1] = target: recombinant Cas2C of Leptospira interrogans serovar Copenhageni (rLinCas2C) (L. interrogans serovar Copenhageni strain Fiocruz L1-130); assay: SEC; size-exclusion chromatography of the Ni-NTA purified recombinant protein; conditions not shown
[2] = target: recombinant Cas2C of Leptospira interrogans serovar Lai (rLinCas2C_Lai) (L. interrogans serovar Lai); assay: as above

Row | stoichiometry N [1] | stoichiometry N [2] | Substance
1 | 2 | – | recombinant Cas2C of Leptospira interrogans serovar Copenhageni (rLinCas2C) (enzyme)
2 | – | 3 | recombinant Cas2C of Leptospira interrogans serovar Lai (rLinCas2C_Lai) (enzyme)

Source: PMC9510766
